Data published in patent CN114805568A (BEIJING KENUO XINCHENG TECH CO LTD, dated 2022).
Several values for one entry are separate records, joined by “and”; a condition that tells them apart may be missing. Identical values can stand only once.

Legend:
[1] = target: T1, LILRB2重组蛋白(购于ACRO，Cat# LI2-H5220) (UniProt Q8N423 22-461); assay: BLI (Octet QKe), antibody captured on AHC probe, LILRB2 as analyte, 1:1 fit
T1 construct: Bought reagent; Used as analyte at '60nm' in BLI

[2] = target: T2, LILRB2-mFc(NCBI号:AAH36827，22-461氨基酸) (UniProt Q8N423 22-461); assay: blocking ELISA: LILRB2-mFc binding to coated HLA-G
T2 construct: range 22-461; also called 重组LILRB2; not shown: mouse Fc (mFc)

B1: JTX-8064 (antibody, V domains shown)
VH: QITLKESGPTLVKPTQTLTLTCTFSGFSLNTYAMGVSWIRQPPGKALEWLASIWWNGNKYNNPSLKSRLTVTKDTSKNQVVLTMTNMDPVDTATYYCAHSRIIRFTDYVMDAWGQGTLVTVSS
VL: DIQMTQSPSSLSTSVGDRVTITCRASEDIYNDLAWYQQKPGKAPKLLIYNANSLHTGVASRFSGSGSGTDFTFTISSLQPEDVATYFCQQYYDYPLTFGQGTKLEIK
notes: expressed in HEK293, Protein A purified; also called 对照抗体
- Kd [1]: 4.93 nM
- koff [1]: 0.00211 s⁻¹
- kon [1]: 428000 M⁻¹ s⁻¹
- IC50 [2]: 0.86 nM and 1 nM
